The values that follow come from paper PMC7427332, “Tuning Transcription Factor Availability through Acetylation-Mediated Genomic Redistribution”.

The target in data set [1] is T1, MITF DNA-binding domain K243R (mouse? (MITF mouse cDNA stated for …, UniProt Q08874 287-403, K350R)). Description: competition; competing N5 in EMSA; FA: 10 mM Tris/HCl pH 7.5, 300 mM NaCl, 0.01% Triton X-100, 0.1 mg/mL BSA, 1.33 nM DNA, 25 C, 5 min; EMSA: 25 mM HEPES pH 7.4, 150 mM KCl, 10% glycerol, 200 ug/ml BSA, 5 uM DTT, 20 min, 6% native gel. The conditions noted are these: protein: recombinant; tags: His (Ni-NTA purified; pETM-11 vector); chain copies: 2; blunt. (A gel shift assay detects complexes by their altered migration in electrophoresis.)

For data set [2], the target named is T2, MITF DNA-binding domain K243Q (mouse? (MITF mouse cDNA stated for …, UniProt Q08874 287-403, K350Q)). Described as above. The settings on record: protein: recombinant; tags: His (Ni-NTA purified; pETM-11 vector); chain copies: 2; blunt.
Data set [3] addresses T3, MITF DNA-binding domain WT (bHLH-LZ) (mouse? (MITF mouse cDNA stated for …, UniProt Q08874 287-403)). The description is as above. The settings on record: protein: recombinant; tags: His (Ni-NTA purified; pETM-11 vector); chain copies: 2; blunt.
The target of data set [4] is T1, MITF DNA-binding domain K243R. Description: competition; competing N5 in EMSA; low-affinity motif; FA: 10 mM Tris/HCl pH 7.5, 300 mM NaCl, 0.01% Triton X-100, 0.1 mg/mL BSA, 1.33 nM DNA, 25 C, 5 min; EMSA: 25 mM HEPES pH 7.4, 150 mM KCl, 10% glycerol, 200 ug/ml BSA, 5 uM DTT, 20 min, 6% native gel. The settings on record: protein: recombinant; tags: His (Ni-NTA purified; pETM-11 vector); chain copies: 2; blunt.

In data set [5] the target is T3, MITF DNA-binding domain WT (bHLH-LZ). Described as above. The conditions noted are these: protein: recombinant; tags: His (Ni-NTA purified; pETM-11 vector); chain copies: 2; blunt.
Data set [6] concerns the target T1, MITF DNA-binding domain K243R. The data set can be described thus: fluorescence anisotropy; FA: 10 mM Tris/HCl pH 7.5, 300 mM NaCl, 0.01% Triton X-100, 0.1 mg/mL BSA, 1.33 nM DNA, 25 C, 5 min; EMSA: 25 mM HEPES pH 7.4, 150 mM KCl, 10% glycerol, 200 ug/ml BSA, 5 uM DTT, 20 min, 6% native gel. The settings on record: protein: recombinant; tags: His (Ni-NTA purified; pETM-11 vector); chain copies: 2; label: 3'-fluorescein on strand 1; blunt.

Data set [7] deals with T2, MITF DNA-binding domain K243Q. The description is as above. The settings on record: protein: recombinant; tags: His (Ni-NTA purified; pETM-11 vector); chain copies: 2; label: 3'-fluorescein on strand 1; blunt.
Data set [8] has the same target. The data set is described as above. The conditions noted are these: protein: recombinant; tags: His (Ni-NTA purified; pETM-11 vector); chain copies: 2; label: 3'-fluorescein on strand 1; blunt. This is another data set of the same source.
Data set [9] concerns the target T3, MITF DNA-binding domain WT (bHLH-LZ). Described as above. The settings on record: protein: recombinant; tags: His (Ni-NTA purified; pETM-11 vector); chain copies: 2; label: 3'-fluorescein on strand 1; blunt.
In data set [10] the target is T2, MITF DNA-binding domain K243Q. Described as above. The conditions noted are these: protein: recombinant; tags: His (Ni-NTA purified; pETM-11 vector); chain copies: 2; label: 3'-fluorescein on strand 1; blunt. This is another data set of the same source.

Substitutions are numbered along the chain they refer to.

T2 sequence (Q08874 287-403 K350Q): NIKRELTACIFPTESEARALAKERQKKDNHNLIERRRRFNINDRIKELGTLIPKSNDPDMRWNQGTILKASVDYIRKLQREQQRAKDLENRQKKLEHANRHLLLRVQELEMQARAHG
T3 sequence (Q08874 287-403): as the sequence (Q08874 287-403 K350Q) above, with Q64K counted along it
T1 sequence (Q08874 287-403 K350R): as the sequence (Q08874 287-403 K350Q) above, with Q64R counted along it

B1: TCACGTGA cold competitor (dsDNA)
DNA 1: CTAGACTTGTGGAGATCACGTGATGACTTCCTGATTCCT
DNA 2: AGGAATCAGGAAGTCATCACGTGATCTCCACAAGTCTAG
Turning to B1, the binding result in data set [1], in [2] and in data set [3] was “binds” throughout.

B2: TCACGTTA cold competitor (dsDNA)
DNA 1: B1 DNA 1 with G22T
DNA 2: B1 DNA 2 with C18A
For B2, the binding result is “no binding” in data set [2], “binds” in data set [4] and “binds” in data set [5].

B3: M-box FA probe (dsDNA)
DNA 1: GAGATCATGTGTTGAC
DNA 2: GTCAACACATGATCTC
Consider B3, for which the binding signal is ~4 fold lower affinity than WT protein on same site in data set [6] and 35 fold lower affinity than WT protein on same site in [7].

B4: E-box FA probe (dsDNA)
DNA 1: GAGACCACGTGTTGAC
DNA 2: GTCAACACGTGGTCTC
With B4, the binding signal in data set [6] was ~4 fold lower affinity than WT protein on same site; in [8], 21 fold lower affinity than WT protein on same site.

B5: Consensus CLEAR box FA probe (dsDNA)
DNA 1: GAGATCACGTGATGAC
DNA 2: GTCATCACGTGATCTC
With B5, the binding result in [9] was “binds”. Moreover, the binding signal is ~4 fold lower affinity than WT protein on same site in [6] and ~7 fold lower affinity than WT protein on same site in [10].
